Measurements taken from patent US20240374585A1, “EPITHELIAL SODIUM CHANNEL (ENAC) INHIBITOR CONJUGATES AND METHODS FOR USE THEREOF” (Lung Therapeutics, Inc., priority 2021, published 2024).
Read-outs that look alike come from different tables or passages of the source.

Experiment: Pharmacokinetics in blood, lung tissue and BALF of rats after intratracheal administration
Format: in vivo
Method: The pharmacokinetic profile of the conjugates of the present invention was determined in blood and lung tissue of rats.
Peptide Conj. 8 (SEQ ID NO: 45) and Conj. 9 (SEQ ID NO: 46) were formulated in 0.9% saline and intratracheally administered to 5-7 week-old rats (Sprague Dawley; male; 224-250 g). The pharmacokinetic profile of the peptide conjugates was then determined in blood and lung tissue.
For subgroup A, whole blood samples were collected from animals at 0.083, 0.25, and 0.5 hours following drug administration and for subgroup B, whole blood samples were collected at 0.75, 1, and 2 hours following drug administration for plasma analysis. Lung and bronchoalveolar lavage fluid (BALF) were collected at 0.5 and 2 hours following drug administration.
Whole blood was collected by tail nick at the predetermined time points and then maximal volume by cardiac stick for the final time point. The plasma was spun and collected within 30 minutes of collection. Upon euthanasia of the animal, a necropsy was performed and lungs harvested and weighed for analysis. After weighing the lungs, BALF was collected with 0.5 mL of 0.9% saline. The lungs were then reweighed after BALF collection. Lung, BALF, and plasma samples were frozen until analysis.
Frozen lung tissue was homogenized using a Precellys Evolution tabletop homogenizer (3×6500 rpm) with 4× dilution using normal rat plasma. 50 μL aliquots of homogenized lung tissue was then transferred into a 96 well plate for extraction with methanol. Harvested BALF was transferred in 25 μL aliquots into a 96 well plate and diluted with 25 μL of rat plasma before extraction with methanol. Plasma samples were transferred in 50 μL aliquots into a 96 well plate for extraction with methanol.
Standards were prepared by producing a working stock solution of Conj. 8 and Conj. 9 at 1 mg/mL. The Conj. 8 assay was performed using Conj. 9 as an internal standard at 1000 ng/mL. The Conj. 9 assay was performed using Conj. 8 as an internal standard at 1000 ng/mL.
Extraction was performed by direct precipitation with 3 volumes (150 μL) of methanol containing 1000 ng/ml of Conj. 8 and Conj. 9 as an internal standard. The plate was vortexed, followed by centrifugation (10 minutes at 4° C. and 2500 g) and dried down under heated nitrogen. Reconstitution was in 100 μL of initial mobile phase A (0.1% TFA: 0.1% FA in water) with 5% of mobile phase B (CAN, 0.1% TFA: 0.1% FA), before placing in an autosampler.
Plasma, lung, and BALF samples were analyzed for Conj. 8 and Conj. 9 by liquid chromatography with tandem mass spectrometry (LC/MS/MS) (API 4000; Kinetex® 2.6 μm C18 Column 50×2.1 mm; column temp.=50° C.; mobile phase A-0.1% TFA: 0.1% FA in water; mobile phase B-ACN, 0.1% TFA: 0.1% FA; flow rate-0.25 mL/min). Pharmacokinetic parameters were derived using sparse sampling noncompartmental analysis methods of Phoenix WinNonLin® version 8.0 (Certara USA, Inc.).
Tmax, the time after dosing at which the maximum concentration was observed; Cmax, the maximum observed concentration measured after dosing; AUClast, the area under the concentration versus time curve from the start of dose administration to the last observed quantifiable concentration calculated using the log/linear trapezoidal method; and MRTlast, mean residence time as defined by AUMClast/AUClast.

[1] = male, Sprague Dawley, bronchoalveolar lavage fluid (BALF), other: intratracheal; BALF; rat, IT, 5 mg/kg
[2] = male, Sprague Dawley, lung tissue, other: intratracheal; Lungs; rat, IT, 5 mg/kg
[3] = male, Sprague Dawley, lung, other: intratracheal; Lungs; rat, IT, 5 mg/kg
[4] = male, Sprague Dawley, other: intratracheal; BALF; rat, IT, 5 mg/kg
[5] = male, Sprague Dawley, other: intratracheal; Plasma; rat, IT, 5 mg/kg

| SMILES | plasma concentration (limit of quantitation) (all plasma samples; rat, IT, 5 mg/kg) | MRT last [1] | level at 0.5 h (male, Sprague Dawley, bronchoalveolar lavage fluid (BALF); 0.5 h; rat, IT, 5 mg/kg; read-out: BALF concentration) | level at 2 h (male, Sprague Dawley, bronchoalveolar lavage fluid (BALF); 2 h; rat, IT, 5 mg/kg; read-out: BALF concentration) | MRT last [2] | AUC(0-t) [3] | Tmax [3] | AUC(0-t) [4] | Tmax [4] | Cmax (male, Sprague Dawley, rat, BALF, other: intratracheal, 5 mg/kg, BALF, IT, read-out: Cmax) | Cmax (male, Sprague Dawley, rat, lung, other: intratracheal, 5 mg/kg, Lungs, IT, read-out: Cmax) | Cmax (male, Sprague Dawley, rat, lung, other: intratracheal, 5 mg/kg, at both 0.5 h and 2 h, IT, read-out: approximate mean Cmax concentration in lung tissues) | Tmax (male, Sprague Dawley, inhaled or intranasal; Plasma; rat, IT, 5 mg/kg) | Cmax (male, Sprague Dawley, lung, other: intratracheal; Lungs; rat, IT, 5 mg/kg; read-out: Cmax) | Cmax (male, Sprague Dawley, other: intratracheal; BALF; rat, IT, 5 mg/kg; read-out: Cmax) | AUC(0-t) [5] | MRT last [5] | Cmax (male, Sprague Dawley, other: intratracheal; Plasma; rat, IT, 5 mg/kg; read-out: Cmax) |
| --- | --- | --- | --- | --- | --- | --- | --- | --- | --- | --- | --- | --- | --- | --- | --- | --- | --- | --- |
| CC(=O)N[C@@H](Cc1cn(CCCCNC(N)=NC(=O)c2nc(Cl)c(N)nc2N)nn1)C(=O)NCCCCCC(=O)N[C@@H](C)C(=O)N[C@@H](CO)C(=O)N[C@@H](Cc1c[nH]cn1)C(=O)N[C@@H](CC(C)C)C(=O)N[C@@H](CCCNC(=N)N)C(=O)N[C@@H](CCCCN)C(=O)N[C@@H](CC(C)C)C(=O)N[C@@H](CCCNC(=N)N)C(=O)N[C@@H](CCCCN)C(=O)N[C@@H](CCCNC(=N)N)C(=O)N[C@@H](CC(C)C)C(=O)N[C@@H](CC(C)C)C(N)=O [Conjugate 8] | < 25 ng/mL | 75.6 min | 2910 ng/mL | 3990 ng/mL | 69.6 min | 22500 ng·h/mL | 120 min | 5910 ng·h/mL | 120 min | 3990 ng/mL | 13200 ng/mL | ~13000 ng/mL | – | – | – | – | – | – |
| CC(=O)N[C@@H](Cc1cn(CCCCNC(N)=NC(=O)c2nc(Cl)c(N)nc2N)nn1)C(=O)NCCCCCC(=O)N[C@H](C(=O)N[C@@H](CO)C(=O)N[C@@H](CCCCN)C(=O)N[C@@H](CCCNC(=N)N)C(=O)N[C@@H](CCCNC(=N)N)C(N)=O)C(C)C [Conjugate 9, Ac-(AmilCC2-Pgy)-Ahx-VSKRR-NH2] | – | 39.8 min | – | – | 55.9 min | 362 ng·h/mL | 30 min | 2380 ng·h/mL | 30 min | – | – | – | 30 min | 352 ng/mL | 4290 ng/mL | 293 ng·h/mL | 29.5 min | 2290 ng/mL |
